Reference: publication PMC7589864

Target: F-actin of thin filaments in ghost fibers from rabbit psoas muscle (rabbit (endogenous in psoas muscle fibers)) (UniProt P68135)
Test: polarized microfluorimetry of ghost muscle fibers; 5-IAF-labelled Tpm incorporated into ghost fibers (2 mg/mL, 2-3 h); sum of the four polarized fluorescence intensities of Tpm-AF, in the presence of S1

recombinant control (wild-type) human tropomyosin Tpm2.2 (natural protein), sequence (P07951 whole entry): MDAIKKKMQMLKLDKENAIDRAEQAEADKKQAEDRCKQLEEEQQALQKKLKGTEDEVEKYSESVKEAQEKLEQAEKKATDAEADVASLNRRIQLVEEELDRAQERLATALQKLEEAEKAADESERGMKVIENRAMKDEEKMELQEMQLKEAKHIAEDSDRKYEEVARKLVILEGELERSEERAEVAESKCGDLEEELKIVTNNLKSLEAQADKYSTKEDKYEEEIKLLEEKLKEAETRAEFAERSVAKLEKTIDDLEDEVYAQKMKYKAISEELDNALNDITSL

Row | Substance | sum of fluorescence intensities for Tpm-AF (Isum) in ghost fibers
1 | recombinant control (wild-type) human tropomyosin Tpm2.2 (natural protein) | 1030
2 | recombinant mutant human tropomyosin Tpm2.2 with the Gln147Pro substitution (natural protein) | 978
